Source: article PMC7353701, “Molecular characterization and heterologous expression of two α-glucosidases from Metschnikowia spp, both producers of honey sugars” (Microbial Cell Factories, 2020)
Numbering of substitutions follows the chain as printed.

B1: Mg-αGlu (Metschnikowia gruessii) (protein)
chain: MTDAIWWKDASVYQIWPASYKDSNGDGFGDIPGVISTLDYIKNLGVDVIWLSPMYDSPQDDMGYDVADYENVYPKYGTLEDMDTLISEVHARGMKLILDLVINHTSTAHKWFEESKSDKENPKRDWYIWKPARYDEDGNRHPPNNWQSYFSGSAWEYDENTDEYYLHLFAKSQPDLNWENDETRQAIYDSALTFWFEKGVDGFRIDTAGMYSKVQTFEDAPIVFPDLEWQPCTDFHQSGPRIHEFHKEMFEKVTSKYDAMTVGEVGHSSREDALKYVSAQEKEMNMMFLFDLVEVGSNPSDRFRYDGFKLTDFKQAVSNMSSFSEGTDAWSTCFFENHDQPRCITRFGNDSPEYLFRSGKMLATLLTSLTGTLFIYQGQEFGMTNVPLEWNIDEYKDINTVNYYQLYVEKNGEENVGELIKNINLVARDNARTPVQWDGTENGGFSTGQPWMRVNDNYQQVNAASQVNDPESLYNFYKKALEVRKEHKDVLIYGSLEIIDFDDERVFSFYKKSGDKTAYVVLNFTKDPIDFKPAVESELELVLTNEREIRDDVLSPYESRLYIVKN
B2: Mr-αGlu (Metschnikowia reukaufii) (protein)
chain: B1 chain with T233A, S300K, R304I, S318A

Assays:
[1] = substrate: OC[C@H]1O[C@@](CO)(O[C@H]2O[C@H](CO)[C@@H](O)[C@H](O)[C@H]2O)[C@@H](O)[C@@H]1O; assay: initial rates, Michaelis-Menten fit; format: biochemical, Metschnikowia gruessii; conditions: 0-225 mM sucrose, standard assay 50 mM sodium phosphate pH 7.0, 30 °C
[2] = substrate: OC[C@H]1O[C@@](CO)(O[C@H]2O[C@H](CO)[C@@H](O)[C@H](O)[C@H]2O)[C@@H](O)[C@@H]1O; assay: initial rates, Michaelis-Menten fit; format: biochemical, Metschnikowia reukaufii; conditions: 0-225 mM sucrose, standard assay 50 mM sodium phosphate pH 7.0, 30 °C

Row | Protein | Km [1] | kcat [1] | kcat/Km [1] | Km [2] | kcat [2] | kcat/Km [2]
1 | B1 | 54.1 ± 5.8 mM | 270 ± 10.9 s⁻¹ | 4900 ± 700 M⁻¹ s⁻¹ | – | – | –
2 | B2 | – | – | – | 64.9 ± 4.6 mM | 477 ± 13.7 s⁻¹ | 7400 ± 700 M⁻¹ s⁻¹
